Legend:
[1] = target: HLA-A*01:01; assay: IEDB peptide-MHC binding, purified MHC/direct/fluorescence; filed as Kd, often an IC50 or EC50 that approximates it; ≥ and ≤ were set here for values at or beyond the usual limits of such assays
[2] = target: HLA-A*02:01; assay: as above
[3] = target: HLA-A*03:01; assay: as above
[4] = target: HLA-A*11:01; assay: as above
[5] = target: HLA-A*26:01; assay: as above
[6] = target: HLA-A*30:01; assay: as above
[7] = target: HLA-A*69:01; assay: as above
[8] = target: HLA-B*07:02; assay: as above
[9] = target: HLA-B*08:01; assay: as above
[10] = target: HLA-B*15:01; assay: as above
[11] = target: HLA-B*27:05; assay: as above
[12] = target: HLA-B*40:01; assay: as above
[13] = target: HLA-B*44:02; assay: as above; details: source organism: Giardia lamblia ATCC 50803
[14] = target: HLA-B*58:01; assay: as above
[15] = target: HLA-A*03:01; assay: IEDB peptide-MHC binding, purified MHC/competitive/fluorescence; filed as Kd, often an IC50 or EC50 that approximates it; ≥ and ≤ were set here for values at or beyond the usual limits of such assays; details: source organism: Escherichia coli F11
[16] = target: HLA-A*31:01; assay: as above; details: source organism: Escherichia coli F11
[17] = target: HLA-A*32:15; assay: as above; details: source organism: Escherichia coli F11
[18] = target: HLA-A*68:23; assay: as above; details: source organism: Escherichia coli F11
[19] = target: HLA-B*15:42; assay: as above; details: source organism: Escherichia coli F11
[20] = target: HLA-B*45:06; assay: as above; details: source organism: Escherichia coli F11
[21] = target: HLA-B*83:01; assay: as above; details: source organism: Escherichia coli F11
[22] = target: HLA-A*24:03; assay: IEDB peptide-MHC binding, purified MHC/direct/fluorescence; filed as Kd, often an IC50 or EC50 that approximates it; ≥ and ≤ were set here for values at or beyond the usual limits of such assays; details: source organism: Corynebacterium glutamicum
[23] = target: HLA-A*31:01; assay: as above
[24] = target: HLA-A*11:01; assay: IEDB peptide-MHC binding, purified MHC/competitive/fluorescence; ≥ and ≤ were set here for values at or beyond the usual limits of such assays; details: source organism: Variola virus
[25] = target: HLA-A*68:02; assay: IEDB peptide-MHC binding, purified MHC/direct/fluorescence; filed as Kd, often an IC50 or EC50 that approximates it; ≥ and ≤ were set here for values at or beyond the usual limits of such assays; details: source organism: Camelpox virus M-96
[26] = target: HLA-B*08:02; assay: as above; details: source organism: Variola virus
[27] = target: HLA-B*08:03; assay: as above; details: source organism: Variola virus
[28] = target: HLA-B*38:01; assay: as above
[29] = target: HLA-B*39:01; assay: as above; details: source organism: Camelpox virus M-96
[30] = target: HLA-B*46:01; assay: as above
[31] = target: HLA-B*48:01; assay: as above
[32] = target: HLA-B*57:01; assay: as above; details: source organism: Camelpox virus M-96
[33] = target: HLA-A*01:01; assay: IEDB peptide-MHC binding, purified MHC/competitive/fluorescence; filed as Kd, often an IC50 or EC50 that approximates it; ≥ and ≤ were set here for values at or beyond the usual limits of such assays; details: source organism: Vaccinia virus WR
[34] = target: HLA-A*26:02; assay: as above; details: source organism: Vaccinia virus WR
[35] = target: HLA-B*07:02; assay: as above; details: source organism: Vaccinia virus WR
[36] = target: HLA-B*15:01; assay: as above; details: source organism: Vaccinia virus WR
[37] = target: HLA-B*15:17; assay: as above
[38] = target: HLA-B*18:01; assay: as above; details: source organism: Vaccinia virus WR
[39] = target: HLA-B*35:01; assay: as above; details: source organism: Vaccinia virus WR
[40] = target: HLA-B*15:09; assay: IEDB peptide-MHC binding, purified MHC/direct/fluorescence; filed as Kd, often an IC50 or EC50 that approximates it; ≥ and ≤ were set here for values at or beyond the usual limits of such assays; details: source organism: Brucella suis ATCC 23445
[41] = target: HLA-B*18:01; assay: as above; details: source organism: Brucella abortus
[42] = target: HLA-A*02:06; assay: IEDB peptide-MHC binding, purified MHC/competitive/fluorescence; filed as Kd, often an IC50 or EC50 that approximates it; ≥ and ≤ were set here for values at or beyond the usual limits of such assays; details: source organism: Brucella melitensis bv. 1 str. Rev.1
[43] = target: HLA-A*69:01; assay: as above; details: source organism: Brucella melitensis bv. 1 str. Rev.1
[44] = target: HLA-B*57:01; assay: as above; details: source organism: Brucella melitensis bv. 1 str. Rev.1
[45] = source organism: Giardia lamblia ATCC 50803
[46] = source organism: Corynebacterium glutamicum
[47] = source organism: Camelpox virus M-96
[48] = source organism: Brucella abortus
[49] = source organism: Brucella suis ATCC 23445

ASSWAPTQK
Kd [1, 45]: ≥ 20 µM
Kd [2, 45]: ≥ 20 µM
Kd [3, 45]: 0.51 µM
Kd [4, 45]: 0.0175 µM
Kd [5, 45]: ≥ 20 µM
Kd [6, 45]: 4.14 µM
Kd [7, 45]: ≥ 20 µM
Kd [8, 45]: ≥ 20 µM
Kd [9, 45]: ≥ 20 µM
Kd [10, 45]: ≥ 20 µM
Kd [11, 45]: ≥ 20 µM
Kd [12, 45]: ≥ 20 µM
Kd [13]: ≥ 20 µM
Kd [14, 45]: ≥ 20 µM

MTYSHHACR
Kd [15]: 0.078 µM
Kd [16]: 0.0183 µM
Kd [17]: 0.824 µM
Kd [18]: 0.0002 µM
Kd [19]: ≥ 5 µM
Kd [20]: ≥ 5 µM
Kd [21]: ≥ 5 µM

VHDREGNEV
Kd [1, 46]: ≥ 20 µM
Kd [2, 46]: ≥ 20 µM
Kd [3, 46]: ≥ 20 µM
Kd [4, 46]: ≥ 20 µM
Kd [22]: ≥ 20 µM
Kd [5, 46]: ≥ 20 µM
Kd [6, 46]: 4.84 µM
Kd [23, 46]: ≥ 20 µM
Kd [7, 46]: ≥ 20 µM
Kd [9, 46]: ≥ 20 µM
Kd [10, 46]: ≥ 20 µM
Kd [11, 46]: ≥ 20 µM
Kd [12, 46]: ≥ 20 µM
Kd [14, 46]: ≥ 20 µM

IHIPGDTLF
IC50 [24]: ≥ 152 µM
Kd [2, 47]: ≥ 20 µM
Kd ([5]; source organism: Variola virus): ≥ 20 µM
Kd [25]: ≥ 20 µM
Kd [7, 47]: ≥ 20 µM
Kd ([9]; source organism: Variola virus): ≥ 20 µM
Kd [26]: ≥ 20 µM
Kd [27]: ≥ 20 µM
Kd [11, 47]: ≥ 20 µM
Kd ([28]; source organism: Variola virus): 0.392 µM
Kd [29]: ≥ 20 µM
Kd [12, 47]: ≥ 20 µM
Kd [30, 47]: ≥ 20 µM
Kd [31, 47]: ≥ 20 µM
Kd [32]: ≥ 20 µM
Kd [14, 47]: ≥ 20 µM
Kd [33]: ≥ 20 µM
Kd [34]: ≥ 20 µM
Kd [35]: ≥ 5 µM
Kd [36]: ≥ 20 µM
Kd ([37]; source organism: Vaccinia virus WR): ≥ 20 µM
Kd [38]: ≥ 20 µM
Kd [39]: 0.366 µM

FSDVSHWWQ
Kd [1, 48]: 0.404 µM
Kd [2, 48]: ≥ 20 µM
Kd [3, 48]: ≥ 20 µM
Kd [4, 48]: ≥ 20 µM
Kd [5, 49]: ≥ 20 µM
Kd [23, 48]: ≥ 20 µM
Kd [8, 48]: ≥ 20 µM
Kd [9, 49]: ≥ 20 µM
Kd [10, 48]: ≥ 20 µM
Kd [40]: ≥ 20 µM
Kd [41]: ≥ 20 µM
Kd [11, 48]: ≥ 20 µM
Kd [28, 49]: ≥ 20 µM
Kd [12, 48]: ≥ 20 µM
Kd [30, 48]: ≥ 20 µM
Kd [31, 48]: ≥ 20 µM
Kd [14, 48]: 2.09 µM
Kd [42]: ≥ 20 µM
Kd [43]: ≥ 20 µM
Kd ([37]; source organism: Brucella melitensis bv. 1 str. Rev.1): ≥ 20 µM
Kd [44]: ≥ 20 µM
